This is an account of results in patent US20230095569A1 (published 2023).

Test [1] deals with T1, human Claudin18.2 (CLDN18.2) (UniProt P56856 1-261). Kind of test: FACS cell binding; GAXC031 cells.
The target in test [2] is T1, human Claudin18.2 (CLDN18.2). Description: FACS cell binding; SNU620 cells.
For test [3] the target is unchanged. Description: FACS cell binding; KATO III cells.
The target of another test is SNU620 cells (UniProt P56856 1-261). Kind of test: FACS cell binding; SNU620 cells.
The target in the next test is GAXC031 cells (UniProt P56856 1-261). Description: FACS cell binding; GAXC031 cells.

B1: humanized Ab15 (VHN1×VL2) (antibody, V domains shown)
VH: EVMLVESGGGLVQPGGSLRLSCAASGFTFSTYTMSWVRQTPGKRLEWVATIVGGGGYTYYLDSVKGRFTISRDNSKNTLYLQMNSLRAEDTAVYYCARMGLTQRNALDYWGQGTSITVSS
VL: DIVMTQSPLSLPVTPGEPASISCKSSQSLFNSGNQKNYLAWYLQKPGQPPKLLIYGASTRESGVPDRFTGSGFGTDFTLKISRVEAEDVGVYYCQNDHTYPLTFGAGTKLEIK
As usually defined, the EC50 is the concentration that produces a half-maximal response. A lower EC50 goes with an effect from little substance. B1 had an EC50 in test [1] of 32.2 nM.

B2: Ab10 (antibody, V domains shown)
VH: EVMLVESGGGLVKPGGSLKLSCAASGFTFSSYTMSWVRQTPEKRLEWVATISVIGGNTYYVDSVKGRFTISRDKAKNTLYLQMSSLRSEDTALYYCARLGQTQRNAMDYWGQGTSVTVSS
VL: DIVMTQSPSSLSVSAGEKVTMSCKSSQSLLNSGNQKNYLAWYQQKPGQPPKLLIYGASTRESGVPDRFTGSGSGTDFTLTISSVQAEDLAVYYCQNDYSYPLTFGAGTKLELK
With B2, the EC50 in test [2] came to 5.54 nM; in test [3], 20.9 nM.

B3: chAb17 (antibody, V domains shown)
VH: QVQLKESGPGLVAPSQSLSITCTVSGFSLTSYAISWVRQPPGKGLEWLGEIWTGGGTNYNSALKSRLSISKDNSKSQVFLKMNSLQTDDTARYYCGRLSYGNSLDYWGQGTTLTVSS
VL: DIVMTQSPSSLTVTAGEKVTMSCKSSQSLLNSGNQKNYLTWYQQKPGQPPKLLIYWASTRESGVPDRFTGSGSGTDFTLTVSSVQAEDLAVYYCQNNFIYPLTFGPGTKLELK
Regarding B3, the concentration giving a half-maximal response (EC50) in test [1] came out at 47 nM.

B4: Ab17 (antibody, V domains shown)
VH: QVQLKESGPGLVAPSQSLSITCTVSGFSLTSYAISWVRQPPGKGLEWLGEIWTGGGTNYNSALKSRLSISKDNSKSQVFLKMNSLQTDDTARYYCGRLSYGNSLDYWGQGTTLTVSS
VL: DIVMTQSPSSLTVTAGEKVTMSCKSSQSLLNSGNQKNYLTWYQQKPGQPPKLLIYWASTRESGVPDRFTGSGSGTDFTLTVSSVQAEDLAVYYCQNNFIYPLTFGPGTKLELK
In the case of B4, the values for the 50% effective concentration (EC50) in test [2] and in test [3] were 10.8 nM and 39.3 nM, respectively.

B5: chAb15 (antibody, V domains shown)
VH: EVMLVESGGDLVKPGGSLKLSCAASGFTFSTYTMSWVRQTPEKRLEWVATIVGGGGYTYYLDSVKGRFTISRDNAKNTLYLQMISLRSEDTALYYCARMGLTQRNALDYWGQGTSITVSS
VL: DIVMTQSPSSLSVSEGEKVTLNCKSSQSLFNSGNQKNYLAWYQQKPGQPPKLLIYGASTRESGVPDRFTGSGFGTDFTLTISSVQAEDLAVYYCQNDHTYPLTFGAGAKLELK
Regarding B5, it took 25.1 nM to reach a half-maximal effect in test [1] (EC50).

B6: Ab15 (antibody, V domains shown)
VH: EVMLVESGGDLVKPGGSLKLSCAASGFTFSTYTMSWVRQTPEKRLEWVATIVGGGGYTYYLDSVKGRFTISRDNAKNTLYLQMISLRSEDTALYYCARMGLTQRNALDYWGQGTSITVSS
VL: DIVMTQSPSSLSVSEGEKVTLNCKSSQSLFNSGNQKNYLAWYQQKPGQPPKLLIYGASTRESGVPDRFTGSGFGTDFTLTISSVQAEDLAVYYCQNDHTYPLTFGAGAKLELK
B6: the half-maximal effective concentration (EC50) in test [2] stood at 5.32 nM; in test [3], 27.2 nM.

B7: chAb10 (antibody, V domains shown)
VH: EVMLVESGGGLVKPGGSLKLSCAASGFTFSSYTMSWVRQTPEKRLEWVATISVIGGNTYYVDSVKGRFTISRDKAKNTLYLQMSSLRSEDTALYYCARLGQTQRNAMDYWGQGTSVTVSS
VL: DIVMTQSPSSLSVSAGEKVTMSCKSSQSLLNSGNQKNYLAWYQQKPGQPPKLLIYGASTRESGVPDRFTGSGSGTDFTLTISSVQAEDLAVYYCQNDYSYPLTFGAGTKLELK
For B7, the EC50 in test [1] is 49.2 nM.

B8: IMB362 (antibody, V domains shown)
VH: QVQLQQPGAELVRPGASVKLSCKASGYTFTSYWINWVKQRPGQGLEWIGNIYPSDSYTNYNQKFKDKATLTVDKSSSTAYMQLSSPTSEDSAVYYCTRSWRGNSFDYWGQGTTLTVSS
VL: DIVMTQSPSSLTVTAGEKVTMSCKSSQSLLNSGNQKNYLTWYQQKPGQPPKLLIYWASTRESGVPDRFTGSGSGTDFTLTISSVQAEDLAVYYCQNDYSYPFTFGSGTKLEIKR
As for B8, the EC50 with SNU620 cells is around 7.54 µM.

B9: IMAB362 (antibody, V domains shown)
VH: QVQLQQPGAELVRPGASVKLSCKASGYTFTSYWINWVKQRPGQGLEWIGNIYPSDSYTNYNQKFKDKATLTVDKSSSTAYMQLSSPTSEDSAVYYCTRSWRGNSFDYWGQGTTLTVSS
VL: DIVMTQSPSSLTVTAGEKVTMSCKSSQSLLNSGNQKNYLTWYQQKPGQPPKLLIYWASTRESGVPDRFTGSGSGTDFTLTISSVQAEDLAVYYCQNDYSYPFTFGSGTKLEIKR
Take B9: a half-maximal effect with GAXC031 cells (EC50) was put at 452 nM.

B10: humanized Ab17 (VH5×VLN1) (antibody, V domains shown)
VH: QVQLQESGPGLVKPSQTLSLTCTVSGFSLTSYAISWVRQPAGKGLEWLGEIWTGGGTNYNSALKSRVSISKDNSKSQVFLKLSSVTAADTARYYCGRLSYGNSLDYWGQGTLVTVSS
VL: DIVMTQSPDSTTVLLGERATINCKSSQSLLNSGNQKNYLAWYQQKPGQPPKLLIYWASTRESGVPDRFSGSGSGTDFTLTISSLQAEDVAVYYCQNNFIYPLTFGPGTKLEIK
B10: in test [1], the midpoint of the response, the EC50, lay at 48.9 nM.

B11: humanized Ab17 (VH1×VLN1) (antibody, V domains shown)
VH: QVQLKESGPGLVKPSETLSLTCTVSGFSLTSYAISWVRQPPGKGLEWLGEIWTGGGTNYNSALKSRVSISKDNSKSQVFLKLSSVQAADTARYYCGRLSYGNSLDYWGQGTLVTVSS
VL: DIVMTQSPDSTTVLLGERATINCKSSQSLLNSGNQKNYLAWYQQKPGQPPKLLIYWASTRESGVPDRFSGSGSGTDFTLTISSLQAEDVAVYYCQNNFIYPLTFGPGTKLEIK
Molecule B11 came in with a concentration for a half-maximal effect (EC50) in test [1] of 43.7 nM.

B12: humanized Ab10 (VH3×VLN1) (antibody, V domains shown)
VH: EVQLVESGGGLVQPGGSLRLSCAASGFTFSSYTMSWVRQAPEKRLEWVATISVIGGNTYYVDSVKGRFTISRDKAKNTLYLQMNSLRAEDTALYYCARLGQTQRNAMDYWGQGTLVTVSS
VL: DIVMTQSPDSLAVSAGERATMNCKSSQSLLNSGNQKNYLAWYQQKPGQPPKLLIYGASTRESGVPDRFSGSGSGTDFTLTISSLQAEDVAVYYCQNDYSYPLTFGAGTKLEIK
Turning to B12, in test [1], a half-maximal effect (EC50) was put at 60.9 nM.

B13: humanized Ab10 (VHN1×VLN1) (antibody, V domains shown)
VH: EVMLVESGGGLVQPGGSLRLSCAASGFTFSSYTMSWVRQTPGKRLEWVATISVIGGNTYYVDSVKGRFTISRDKSKNTLYLQMNSLRAEDTAVYYCARLGQTQRNAMDYWGQGTLVTVSS
VL: DIVMTQSPDSLAVSAGERATMNCKSSQSLLNSGNQKNYLAWYQQKPGQPPKLLIYGASTRESGVPDRFSGSGSGTDFTLTISSLQAEDVAVYYCQNDYSYPLTFGAGTKLEIK
As to B13, the 50% effective concentration (EC50) in test [1] was found to be 43.8 nM.

B14: humanized Ab15 (VH3×VLN1) (antibody, V domains shown)
VH: EVMLVESGGGVVQPGGSLRLSCAASGFTFSTYTMSWVRQTPEKRLEWVATIVGGGGYTYYLDSVKGRFTISRDNAKNTLYLQMNSLRTEDTALYYCARMGLTQRNALDYWGQGTLITVSS
VL: DIVMTQSPDSLAVSLGERATINCKSSQSLFNSGNQKNYLAWYQQKPGQPPKLLIYGASTRESGVPDRFSGSGFGTDFTLTISSLQAEDVAVYYCQNDHTYPLTFGAGTKLEIK
B14 displayed an EC50 in test [1] of 28.6 nM.
